According to PMC4598320, “Novel binders derived from an albumin-binding domain scaffold targeting human prostate secretory protein 94 (PSP94)” (Protein & Cell, 2015):
“And” between values parts separate entries of the source, which are not always exact repeats. Equal entries are not always repeated. Ends that are not written are not given here.

Experiments:
both these PAB proteins = assay: flow cytometry on cells; competition: PAB variants mixed with increasing concentrations of recombinant HisTag-PSP94 and left to bind LNCaP cells for 30 min; streptavidin-PE; binding without PSP94 taken as 100%; pair recombinant PSP94 with PAB
[1] = target: T1, PSP94 of LNCaP prostate cancer cells (membrane-bound on the cell surface); intracellular in permeabilized … (human (endogenous in LNCaP), UniProt P08118 21-114); assay: flow cytometry on cells; competition: LNCaP cells with (80 µg/mL) or without rabbit polyclonal antibody sc-68920 for 15 min on ice, then PAB binders at 10 µg/mL for 30 min; streptavidin-PE; settings: one partner purified
T1 construct: the cells were not transfected; source: endogenous, LNCaP cells (on the cell surface; inside permeabilized cells)
T1 sequence (looked up): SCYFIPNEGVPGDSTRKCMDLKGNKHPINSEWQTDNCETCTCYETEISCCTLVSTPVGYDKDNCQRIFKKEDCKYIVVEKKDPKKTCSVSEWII

[2] = target: T2, recombinant HisTag-PSP94 (human prostate secretory protein 94) (human, UniProt P08118 21-114, fluorescent label (in the microscale thermophoresis only)); assay: MST; fluorescently labelled HisTag-PSP94 in solution, PAB variants titrated; thermophoresis + T-jump data, NanoTemper software; settings: both partners purified
T2 construct: prostate secretory protein 94 (PSP94, β-microseminoprotein), human, product of the MSMB gene; The letter has no methods section; the construct may be told in the supplementary file; also called His-PSP94; β-microseminoprotein; not shown: His tag, N-terminal, kept
T2 sequence (looked up): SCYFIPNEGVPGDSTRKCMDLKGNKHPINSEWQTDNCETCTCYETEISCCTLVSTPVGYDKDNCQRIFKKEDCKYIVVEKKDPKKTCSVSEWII

B1: recombinant HisTag-PSP94 (human prostate secretory protein 94) (natural protein)
chain: SCYFIPNEGVPGDSTRKCMDLKGNKHPINSEWQTDNCETCTCYETEISCCTLVSTPVGYDKDNCQRIFKKEDCKYIVVEKKDPKKTCSVSEWII
modifications: fluorescent label (in the microscale thermophoresis only)
B1 was tested, and the percent inhibition of PAB binding to LNCaP cells at 20 µg/mL PSP94 (both these PAB proteins) was 5 to 10%.

B2: PAB046 (HisTag-PAB-TolA-AviTag fusion protein) (designed binder)
chain: LAEAKVLANRELDKYGVSDRYKNAINRAPAVWWVKRLIDAILAALP
modifications: not fully specified (N-terminus, C-terminus)
notes: numbers count on: the 46-residue ABD scaffold; positions 20-46 of the ABD scaffold with the 11 randomized positions as selected in PAB046; 46-residue ABD variant linked to a 305-residue TolA spacer with a C-terminal AviTag; also called PAB046 variant; source: E. coli, purified, in vivo biotinylated; not shown: His tag, N-terminal, kept; TolA spacer (helical, 305 amino acids), C-terminal, kept; …
In the case of B2, the “percent inhibition of binding by polyclonal antibody sc-68920 (the pair that is blocked)” value (“percent inhibition of binding” for short) [1] is reported as 30% and the Kd [2] is reported as 49 ± 10 nM.

B3: PAB050 (HisTag-PAB-TolA-AviTag fusion protein) (designed binder)
chain: LAEAKVLANRELDKYGVSDLYKNHINTAWRVAAVKRAIDLILASLP
modifications: not fully specified (N-terminus, C-terminus)
notes: numbers count on: the 46-residue ABD scaffold; positions 20-46 of the ABD scaffold with the 11 randomized positions as selected in PAB050; 46-residue ABD variant linked to a 305-residue TolA spacer with a C-terminal AviTag; also called PAB50; PAB050 variant; source: E. coli, purified, in vivo biotinylated; not shown: His tag, N-terminal, kept; TolA spacer (helical, 305 amino acids), C-terminal, …
With B3 the “percent inhibition of binding” value [1] was 30% and the Kd [2] was 10 nM and 12 nM and 21 nM.

B4: PAB036 (HisTag-PAB-TolA-AviTag fusion protein) (designed binder)
chain: LAEAKVLANRELDKYGVSDWYKNGINPAHRVRWVKGRIDAILARLP
modifications: not fully specified (N-terminus, C-terminus)
notes: numbers count on: the 46-residue ABD scaffold; positions 20-46 of the ABD scaffold with the 11 randomized positions as selected in PAB036; 46-residue ABD variant linked to a 305-residue TolA spacer with a C-terminal AviTag; also called PAB036 variant; source: E. coli, purified, in vivo biotinylated; not shown: His tag, N-terminal, kept; TolA spacer (helical, 305 amino acids), C-terminal, kept; …
With B4 the “percent inhibition of binding” value [1] was ~15% and the Kd [2] was 40 nM and 72 nM.
